Our source for the percent less Drp1 and Mff in the pellets than for Drp1-WT values is paper PMC10881151.

The target of assay [1] is Drp1-S600D (phosphomimetic mutant of human DRP1 isoform 3) (human). Put plainly: co-sedimentation.
The target in assay [2] is Drp1-S579D (phosphomimetic mutant of human DRP1 isoform 3) (human). Put plainly: co-sedimentation.

As to “MFF-∆TM (truncated human MFF isoform 4) (from UniProt Q9GZY8-4 1-218) (domain or fragment)”, the percent less Drp1 and Mff in the pellets than for Drp1-WT in assay [1] and in assay [2] was 50% each time.
